The DeepSol protein solubility set

Assay: soluble on expression in E. coli; label from the status in PepcDB or PDB records

Sequence	soluble on expression in E. coli
MAACGNPSAAVKFERLPTFAEPTHYNVRLSPCLNQFSFDGHATIDVTIKEATDVLKVHAQSLLIQSVSLITQPGDASKSLETSYDDKLNILTIKLPTTMQPQKVQLDFKFVGELNDKMRGFYRSQYKDKNGTEKFLASTQFESTYARYAFPCFDEPIYKATFDVTLEVENHLTALSNMNVISETPTADGKRKAVTFATSPKMSSYLVAFAVGELEYISAQTKSGVEMRVYTVPGKKEQGQYSLDLSVKCIDWYNEWFDIKYPLPKCDLIAIPDFSMGAMENWGLVTYREIALLVDPGVTSTRQKSRVALVVAHELAHLWFGNLVTMKWWTDLWLKEGFASFMEYMFVGANCPEFKIWLHFLNDELASGMGLDALRNSHPIEVEIDNPNELDEIYDSITYAKSNSVNRMLCYYLSEPVFQKGLRLYLKRFQYSNAVTQDLWTALSEASGQNVNELMSGWTQQMGFPVLKVSQRQDGNNRILTVEQRRFISDGGEDPKNSQWQVPITVAVGSSPSDVKARFLLKEKQQEFTIEGVAPGEWVKLNSGTTGFYRVEYSDEMLTAMLPDIASRRMPVLDRFGLINDLSALLNTGRVSIAQFVQVAASSAKEDEYVVWGAIDEGMSKLLACAREMSEDTLKSAKQLVVKMFEQTGAELGFAEQAGEDSQKMMLRSLVQARLARAGHQPTIDKFTQMFNDFLEKGTPIHPDIRLATFGVVARYGGKEGFDKLMNLRETTTFQEIERQTMVAMSQTPEESLLAQLFEYGFEKNKVRPQDQLYLFLGTGATHMGQQYAWKYFCEHIKEFLDKYGGANSSLFQRCLKFAGESFGNEKRAVEFQDFFCNCNVLSDTDRQTLARPIGQTVEAIRLNARLLESNRQIIENLLKQSNV	not soluble
MAAETKVQVSDPEAEFLNSKQETGYEWELFKENVRPLKRGRNVGILNHALKSHSDHQLRKNLIEKRRNLIEAIDEYEGDDPLSPWIECIKWVQEAFPPGGECSGLLVIYEQCVRKFWHSERYKDDLRYLKVWLEYAEHCADAEVIYKFLEVNEIGKTHAVYYIAYALHIEFKNKVKTANEIFNLGISRDAKPVEKLNDAYKKFMVRTMRRSNTADEEPKENNDLPSRSFGTLLSRGDNNARRQALGSSNPQAKKLKPNQSSKTPFAIYADAVSDTTSGNQPESDKSRPEFGSWLMLGGRAERNKENNSLPRKWASFKVPQKPIVRTVAAASASTFEVFVDEEECTEEEEEKKKNDETISSSSNVLPLNGGREIKKETELLRQNPLRHFPPNSFLR	not soluble
MAAKNAFYAQSGGVTAVINASAAGVIEAARKQSGKIGRIYAGRNGIIGALTEDLIDTGQESDAAISALRYTPSGAFGSCRYKLKSLEQNRREYERLIEVFKAHDIGYFFYNGGGDSADTCLKVSQLSGTLGYPIQAIHVPKTVDNDLPITDCCPGFGSVAKYIAVSTLEASFDVASMSATSTKVFVLEVMGRHAGWIAAAGGLASSPEREIPVVILFPEISFDKQKFLAKVDSCVKKFGYCSVVVSEGVKGDDGKFLSDQGVRDAFGHAQLGGVAPVVASMVKEGLGLKYHWGVADYLQRAARHIASKTDVEQAYAMGQAAVEFAVQGHNSVMPTIERISARPYQWKVGMAQLSQVANVEKMMPENFITEDGFGITDLCREYLAPLIEGEDYPPYKDGLPDYVRLKNVAVPKKLSGFTLLEHHHHHH	not soluble
MAALRYAGLDDTDSEDELPPGWEERTTKDGWVYYANHTEEKTQWEHPKTGKRKRVAGDLPYGWEQETDENGQVFFVDHINKRTTYLDPRLAFTVDDNPTKPTTRQRYDGSTTAMEILQGRDFTGKVVLVTGANSGIGFETAKSFALHGAHVILACRNLSRASEAVSRILEEWHKAKVEAMTLDLAVLRSVQHFAEAFKAKNVSLHVLVCNAGTFALPWGLTKDGLETTFQVNHLGHFYLVQLLQDVLCRSSPARVIVVSSESHRFTDINDSSGKLDLSRLSPPRSDYWAMLAYNRSKLCNILFSNELHRRLSPRGVTSNAVHPGNMMYSAIHRNSWVYKLLFTLARPFTKSMQQGAATTVYCAVAPELEGLGGMYFNNCCRCLPSEEAQSEETARALWELSERLIQDRLGSPSS	soluble
MAANEGNQPIPPEEEKEISSLLESIKIGKTSLKYRCFYLYDDKMTDLTEEQKETLKKLKLYQKEYYDYESKFEYELFLLRQKYHDLYGPIYDKRREALVGNGEAKIGTPNLPEFWLRALRNNNTVSHVIEDHDEEILVYLNDIRCDYIKKNKEKKEGFILSFYFATNPFFSNSVLTKTYHMKCVDCDNEPVLLHTEATVIDWYDNKNILKKNVVKKQHNKNSREVKTVQQTVNRDSFFHFFTSHKVPNSNVIKQLSKHEVAQLEMIIEGDYEVALTIKERIIPYAVDYYLGIIIESESNSIVSDVDSSYSSSENNSNYNSYESNNSAYNDENSNVDTNEYDDNEEEEEGAKSNEDPLTS	soluble
MAANSLPTNVASPVQTTTPTTDKRSIGFIDRQLGTNPAELPPLPYGYDALEKAIDAETMKLHHDKHHAAYVNNLNNALKKHPELQNSSVEALLRDLNSVPEDIRTTVRNNGGGHLNHTIFWQIMSPDGGGQPTGDIAQEINQTFGSFEEFKKQFNQAGGDRFGSGWVWLVRNPQGQLQVVSTPNQDNPIMEGSYPIMGNDVWEHAYYLRYQNRRPEYLNNWWNVVNWSEINRRTQASRQSNSHHHHHH	soluble
MAAQIPIVAATSTPAVARNSKKRPASPSHNSSGGGYGASKKKKLSASGFAQGVSIEAMNESKMASSELSSGPVEKAAKPLPFKDPNFVHSGHGGAVAGKKNRTWKNLKQILAAERALPWQLNDPNYFSIDAPPSFKPAKKYSDISGLLANYTDPQSKLRFSTVEEFSYIRRLPSDVVTGYLALRKATSIVP	not soluble
MAAQVEIEDQESVTNLDNGEIINPISDNAPNFSGDATILLREATFEHNLIKNCFLSGMGSFATETTIVTVRKILTQRLITTKAKFAVFKLFTEAMKRKNNGYANIRYGWYSGSKEEIDRVITYGFSNREIKKVENDVGSHGVGIHLVHHRYSLAAALVGEGDEEGIKNILLCRVILGKPEQIVTGSKQSYPSSNQFDSGVDNLENPRKYVIWSCNMNSYILPTYIVSFKSHLLRGLIGRARSPCVSFSVLMSILSKSLDAARMNLILTSYDDFRKRKLRREQLVRKIREVVGDNLLFKILKNQRR	soluble
MAAQVTLEDALSNVDLLEELPLPDQQPCIEPPPSSLLYQPNFNTNFEDRNAFVTGIARYIEQATVHSSMNEMLEEGQEYAVMLYTWRSCSRAIPQVKCNEQPNRVEIYEKTVEVLEPEVTKLMNFMYFQRNAIERFCGEVRRLCHAERRKDFVSEAYLITLGKFINMFAVLDELKNMKCSVKNDHSAYKRAAQFLRKMADPQSIQESQNLSMFLANHNKITQSLQQQLEVISGYEELLADIVNLCVDYYENRMYLTPSEKHMLLKVMGFGLYLMDGSVSNIYKLDAKKRINLSKIDKYFKQLQVVPLFGDMQIELARYIKTSAHYEENKSRWTCTSSGSSPQYNICEQMIQIREDHMRFISELARYSNSEVVTGSGRQEAQKTDAEYRKLFDLALQGLQLLSQWSAHVMEVYSWKLVHPTDKYSNKDCPDSAEEYERATRYNYTSEEKFALVEVIAMIKGLQVLMGRMESVFNHAIRHTVYAALQDFSQVTLREPLRQAIKKKKNVIQSVLQAIRKTVCDWETGHEPFNDPALRGEKDPKSGFDIKVPRRAVGPSSTQLYMVRTMLESLIADKSGSKKTLRSSLEGPTILDIEKFHRESFFYTHLINFSETLQQCCDLSQLWFREFFLELTMGRRIQFPIEMSMPWILTDHILETKEASMMEYVLYSLDLYNDSAHYALTRFNKQFLYDEIEAEVNLCFDQFVYKLADQIFAYYKVMAGSLLLDKRLRSECKNQGATIHLPPSNRYETLLKQRHVQLLGRSIDLNRLITQRVSAAMYKSLELAIGRFESEDLTSIVELDGLLEINRMTHKLLSRYLTLDGFDAMFREANHNVSAPYGRITLHVFWELNYDFLPNYCYNGSTNRFVRTVLPFSQEFQRDKQPNAQPQYLHGSKALNLAYSSIYGSYRNFVGPPHFQVICRLLGYQGIAVVMEELLKVVKSLLQGTILQYVKTLMEVMPKICRLPRHEYGSPGILEFFHHQLKDIVEYAELKTVCFQNLREVGNAILFCLLIEQSLSLEEVCDLLHAAPFQNILPRVHVKEGERLDAKMKRLESKYAPLHLVPLIERLGTPQQIAIAREGDLLTKERLCCGLSMFEVILTRIRSFLDDPIWRGPLPSNGVMHVDECVEFHRLWSAMQFVYCIPVGTHEFTVEQCFGDGLHWAGCMIIVLLGQQRRFAVLDFCYHLLKVQKHDGKDEIIKNVPLKKMVERIRKFQILNDEIITILDKYLKSGDGEGTPVEHVRCFQPPIHQSLASS	not soluble
MAARRAPISRRDRPAKPALSRRWIVDTAVALMRAEGLEKVTMRRLAQELDTGPASLYVYVANTAELHAAVLDALLGEVDLTGAGAEEDWREQLRAVLTSYTLVLFAHPQLARSALVARPSGENYLRLVERVLELLARSGAPGAQVAWGVDKLLQDATATAAEQATQEHDPASHEDWSATVRALRDADEATHPAIASHMPLLVAGSAHDRLRWSFDVLVNGITRTPVPGPARGAAG	soluble
MAASMARLWWPFLARQGLRSRGRCVCSQNPRRSFATEKRVRNLLYEHAREGYSELPYLDMESVCACPEKAARSLELRKGELRPADLPAIISTWQELRQLREQIRSLEAEKEAVAEAVRALLANQDSDQVQKDPQYQGLRARGREIRKQLTPLYPQETQLEEQLYQQALRLPNQTHPDTPVGDESQARVVRVVGEKPAFSFQPRGHLEIGEKLDIIRQKRLSHVSGHRSYYLRGAGALLQHGLVNFTLSKLVSRGFTPMTVPDLLRGAVFEGCGMTPNANPSQIYNIDPSRFEDLNLAGTAEVGLAGYFMDHSVAFRDLPVRMVCASTCYRAETDTGKEPWGLYRVHHFTKVEMFGVTGPGLEQSSQLLDEFLSLQVEILTELGLHFRVLDMPTQELGLPAYRKFDIEAWMPGRGRYGEVTSASNCTDFQSRRLYIMFETETGELQFAHTVNATACAVPRVLIALLESNQQKDGSVLVPAALQPYLGTDRITAPTHVPLQYIGPNQPQKPRLPGQSATR	soluble
MAATNHAQAIKKDTKDFITTALLQMLAKEKLQALTVSQICKRAGVSRMAFYRNFNGLEQILYEYYQPKIGAMFDTIRENPQFSAKFDSQLKFFNTFGDDIILSIDRGFEPIIQQIFKEEIEKFYFKDNDEHWTTFMSAGVYAIWRKWLLDGRQKPLKEIMDFFKQFDMIKGNV	not soluble
MADDPHVLAFLARVHQGRRDRVEDHLHEHFIRERNLHQRPQFPPLQLVPVQAEHEYEHPFPLVDVFKFSLQGDSVKTASSSWQGLQWKVKCSIYNLPGELLATRVSVDFFNLMDRVFKATVKYEMNEKFAAANEFAEVVIDSNHSTIVFPETGAFAPGRLVDGMLPTEIAVKIKLEHAEIVDQFSYNNQSWVMGTRWVRYGDECSVRMNFDVLKNLNPCHDKFFDDLREQVLSPKEARAFFDFASAIFNRSFMGLDLFHESVRNGLKFGFTTNWDSLNTVDSEFDFNSRTAFPGYQNVLYEQPSELTSISNRETAGMCQIFKLNLDPSDVTTRFQVASMNNVKSHTSQFTFYLENSPNGYLLIAGGCFQMESRQLVNLKLTLFDSGVSCRNIQTFRILHKEQSTIKVVIALLDDDKMEKMSRGKLLLNFQMHMNGTISNVVRNFEDQTKRIGDFAMPGLVTGYINCRDKKRIGVCKEHLANNSEHLNMLFFNTVFEDCGKNEITVNEDSDIVLDALDIIYHRSLAIFPAQINRVLDLAGYWLSATMHRFMEIAILHSTHISDSAKLELAAEHHFDIIKYVARHPRYASTYHLSLTDEEIMQVRIPADNEVDGGTGGRPRRVEDLMDLEEQQE	not soluble
MADEEKVTTEEQALADEWAAALAEAGDASQDDIDALMAQGGATPVAEPSTPRAPMEEFGASPKAPTISGLEGPNLDVILDIPVTISMEVGHTDISIRNLLQLNQGSVIELDRLAGEPLDVLVNGTLIAHGEVVVVNEKFGIRLTDVISPSERIKKLR	not soluble
MADINPNHTIYVNNLNEKVKKDELKRSLHMVFTQFGEIIQLMSFRKEKMRGQAHIVFKEVSSASNALRALQGFPFYGKPMRIQYAREDSDVISRAKGTFVEKRQKSTKIAKKPYEKPAKNGKSAAEPTQKEPQETDGPGLPNNILFCSNIPEGTEPEQIQTIFSQFPGLREVRWMPNTKDFAFIEYESEDLSEPARQALDNFRITPTQQITVKFASK	not soluble
